# Patent US20260151519A1 (AKTIS ONCOLOGY, published 2026)
# Primed or numbered codes have the meaning given here. Where no end group is shown, it is not given here. [ ]: non-standard residue; d: D form. The star is where a group is joined. Biotin = O=C1N[C@H]2[C@H](CS[C@H]2CCCCC(=O)*)N1; Lys(Me3) = C[N+](C)(C)CCCC[C@H](N)C(=O)O; PEG4′ = not defined here
# B1: C208 (designed binder)
# chain: {Biotin-PEG4′}-CDYDEQFFTALKRLRGADICEYIQASFQYLPGECIEEILDNLGCS
# modifications: cysteine pairing not given here
# B2: C190 (designed binder)
# chain: {Biotin-PEG4′}-CDYDEQFFTALKRLRGGDICEYIQASFQYLPGLCIEEILDNLGCS
# modifications: cysteine pairing not given here
# B3: C197 (designed binder)
# chain: {Biotin-PEG4′}-CEYDEQFFTALKRLRGDDICDYIQASFQYLPGLCIEEILDNLGCS
# modifications: cysteine pairing not given here
# B4: C247 (designed binder)
# chain: {Biotin-PEG4′}-CDYDEQFFTALARLRGADICEYIQASFQYLPGECIEEILDNLGCS
# modifications: cysteine pairing not given here
# B5: C253 (designed binder)
# chain: {Biotin-PEG4′}-CEYDEEFFTALARLRGGDICQYIQA[Lys(Me3)]FQYLPALCIEEILDNLGCS
# modifications: cysteine pairing not given here
# Biological target: T1, PAPPA (human, UniProt Q13219 82-1627)
# T1 construct: whole, on cells; Secreted targets were tethered to the plasma membrane
# Test: cell microarray on HEK293 cells
# Experimental: (§1) Initially, two pools of compounds were tested. […] To perform this assay, HEK293 cells were plated on a dish and localized spots of cells were transiently over-expressed with a single cDNA encoding for GFP and one of the 6,416 targets. Included in this library were multiple clones for the Nectin family members, including plasma membrane, non-tethered secreted, and tethered secreted forms of Nectin-1, 2, 3, and 4. Secreted protein targets were tethered to the plasma membrane to aid in detection. The molecule pools were incubated on the fixed, over-expressing cell microarrays (n=2 per protein), and binding was visualized using Alexa Fluor 647 streptavidin fluorescence.
# T1 sequence (Q13219 82-1627): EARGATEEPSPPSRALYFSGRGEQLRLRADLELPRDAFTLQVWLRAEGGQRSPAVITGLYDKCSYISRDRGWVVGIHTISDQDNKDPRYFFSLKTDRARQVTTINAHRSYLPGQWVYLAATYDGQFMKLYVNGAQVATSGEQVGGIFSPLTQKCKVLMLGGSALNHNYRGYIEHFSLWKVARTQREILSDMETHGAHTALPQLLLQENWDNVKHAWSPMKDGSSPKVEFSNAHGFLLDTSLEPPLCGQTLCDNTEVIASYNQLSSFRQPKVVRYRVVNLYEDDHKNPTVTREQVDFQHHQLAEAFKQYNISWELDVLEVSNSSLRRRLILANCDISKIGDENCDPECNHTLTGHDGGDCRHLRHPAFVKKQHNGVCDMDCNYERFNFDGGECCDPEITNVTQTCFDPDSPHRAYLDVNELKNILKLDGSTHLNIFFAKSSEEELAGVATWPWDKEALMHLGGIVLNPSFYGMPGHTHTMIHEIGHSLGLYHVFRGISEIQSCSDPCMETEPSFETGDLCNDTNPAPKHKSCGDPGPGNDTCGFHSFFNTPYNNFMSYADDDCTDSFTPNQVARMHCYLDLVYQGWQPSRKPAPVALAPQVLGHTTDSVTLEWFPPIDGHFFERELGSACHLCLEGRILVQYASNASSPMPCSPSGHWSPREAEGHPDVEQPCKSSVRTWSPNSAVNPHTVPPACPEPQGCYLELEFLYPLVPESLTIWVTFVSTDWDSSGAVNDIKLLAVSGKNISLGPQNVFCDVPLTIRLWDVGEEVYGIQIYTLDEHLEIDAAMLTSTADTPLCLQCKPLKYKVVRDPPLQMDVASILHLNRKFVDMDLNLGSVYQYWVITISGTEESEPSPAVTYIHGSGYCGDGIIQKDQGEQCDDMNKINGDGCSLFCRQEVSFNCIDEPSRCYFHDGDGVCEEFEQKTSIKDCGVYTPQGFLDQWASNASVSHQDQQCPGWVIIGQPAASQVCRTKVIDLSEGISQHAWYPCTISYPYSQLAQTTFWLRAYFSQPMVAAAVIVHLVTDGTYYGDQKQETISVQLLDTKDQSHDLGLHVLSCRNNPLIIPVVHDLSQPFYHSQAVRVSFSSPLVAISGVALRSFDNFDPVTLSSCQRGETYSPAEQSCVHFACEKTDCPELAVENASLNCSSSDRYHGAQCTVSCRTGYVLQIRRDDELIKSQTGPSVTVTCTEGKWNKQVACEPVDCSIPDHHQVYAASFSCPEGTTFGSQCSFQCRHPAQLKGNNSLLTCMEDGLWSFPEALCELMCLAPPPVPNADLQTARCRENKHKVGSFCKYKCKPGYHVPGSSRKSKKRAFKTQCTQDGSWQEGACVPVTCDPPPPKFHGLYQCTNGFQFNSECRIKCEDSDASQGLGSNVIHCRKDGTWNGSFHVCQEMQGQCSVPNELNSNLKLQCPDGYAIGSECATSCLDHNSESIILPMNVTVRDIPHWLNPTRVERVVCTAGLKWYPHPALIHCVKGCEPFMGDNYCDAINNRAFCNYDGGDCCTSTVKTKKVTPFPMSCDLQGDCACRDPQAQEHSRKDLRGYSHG
row,Binder,binding result
1,B1,no binding (tested: 2 µg/mL)
2,B2,no binding (tested: 2 µg/mL)
3,B3,no binding (tested: 2 µg/mL)
4,B4,no binding (tested: 2 µg/mL)
5,B5,no binding (tested: 2 µg/mL)

# Biological target: T2, IGFBP5 (human, UniProt P24593 21-272)
# T2 construct: whole, on cells; Secreted targets were tethered to the plasma membrane
# Test: cell microarray on HEK293 cells
# Experimental: as §1
# T2 sequence (P24593 21-272): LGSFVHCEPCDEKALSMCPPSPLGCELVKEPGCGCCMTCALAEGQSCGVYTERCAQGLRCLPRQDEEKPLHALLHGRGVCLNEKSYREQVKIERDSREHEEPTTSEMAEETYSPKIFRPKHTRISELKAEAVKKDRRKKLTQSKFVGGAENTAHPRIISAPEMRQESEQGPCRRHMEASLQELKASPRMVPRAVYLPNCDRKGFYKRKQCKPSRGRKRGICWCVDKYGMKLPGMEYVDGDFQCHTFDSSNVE
row,Binder,binding result
1,B1,no binding (tested: 2 µg/mL)
2,B2,no binding (tested: 2 µg/mL)
3,B3,no binding (tested: 2 µg/mL)
4,B4,no binding (tested: 2 µg/mL)
5,B5,no binding (tested: 2 µg/mL)

# Biological target: T3, Human Nectin-4 (human, UniProt Q96NY8 32-349, limits assumed)
# T3 construct: Protein immobilised on the SPR chip; also called target protein
# T3 sequence: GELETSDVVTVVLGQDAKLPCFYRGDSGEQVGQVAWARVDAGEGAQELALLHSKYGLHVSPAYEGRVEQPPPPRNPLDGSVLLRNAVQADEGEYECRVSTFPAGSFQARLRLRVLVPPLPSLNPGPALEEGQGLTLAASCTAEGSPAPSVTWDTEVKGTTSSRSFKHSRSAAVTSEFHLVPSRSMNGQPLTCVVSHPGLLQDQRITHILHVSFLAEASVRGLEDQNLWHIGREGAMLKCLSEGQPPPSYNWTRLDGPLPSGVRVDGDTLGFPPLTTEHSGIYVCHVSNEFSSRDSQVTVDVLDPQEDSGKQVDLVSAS
# Test: SPR, Biacore T200, target immobilised, 1:1 model
# Experimental: Surface plasmon resonance (SPR) analyses were performed using Biacore T200 (GE Healthcare). Target protein (“ligand”) was immobilized to a CM5 Series S sensor chip (Cytiva) using amine-coupling chemistry. Running buffer was 0.05% surfactant P20 in HEPES buffered saline (HBS-P), pH 7.4 (Cytiva). Immobilization was performed at 25° C. Carboxyl groups in each flow cell were activated using a 1:1 mixture of 0.4 M 1-ethyl-3-(3-dimethylaminopropyl)-carbodiimide in water (EDC) and 0.1 M N-hydroxysuccinimide in water (NHS) for 7 minutes. The ligand was prepared in 10 mM sodium acetate pH 5 (Cytiva). Pulsatile injections were made to target a specific immobilization level. Any remaining amine-reactive esters on the chip surface were blocked with a 7-minute injection of 1 M ethanolamine, pH 8.5. Three 10-second pulses of 50 mM sodium hydroxide were then made to remove any unbound ligand. Reference cells were modified using amine coupling chemistry, omitting ligand injection.
# Increase in signal (RU) is proportional to an increase in binding events between the analyte and ligand surface. The injection was then stopped, and dissociation was measured. […] Measured association (kₐ, 1/Ms⁻¹) and dissociation (kd, s⁻¹) were fit to a 1:1 binding model to calculate a dissociation equilibrium constant, KD(M) for each analyte.
row,Binder,Kd [nM]
1,B1,0.302
2,B2,0.318
3,B3,0.212
4,B4,0.283
5,B5,0.255

# Biological target: T4, Nectin-2 (human, UniProt Q92692 32-538)
# T4 construct: whole, on cells; Plasma membrane, non-tethered secreted and tethered secreted forms in the library
# T4 sequence (looked up): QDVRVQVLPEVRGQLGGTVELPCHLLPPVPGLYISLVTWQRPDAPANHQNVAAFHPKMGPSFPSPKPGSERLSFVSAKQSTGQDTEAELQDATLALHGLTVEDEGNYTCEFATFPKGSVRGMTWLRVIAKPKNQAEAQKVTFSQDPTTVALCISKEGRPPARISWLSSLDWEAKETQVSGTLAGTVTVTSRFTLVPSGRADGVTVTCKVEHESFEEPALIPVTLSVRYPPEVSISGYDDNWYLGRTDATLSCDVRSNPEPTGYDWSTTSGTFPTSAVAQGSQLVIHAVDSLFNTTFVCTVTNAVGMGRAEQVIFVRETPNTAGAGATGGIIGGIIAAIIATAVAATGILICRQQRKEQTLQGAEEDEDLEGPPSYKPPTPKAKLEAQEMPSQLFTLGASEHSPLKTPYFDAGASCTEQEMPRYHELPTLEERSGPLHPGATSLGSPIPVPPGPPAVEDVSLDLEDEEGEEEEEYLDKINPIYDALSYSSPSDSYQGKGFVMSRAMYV
# Test: cell microarray on HEK293 cells, pooled compounds
# Experimental: as §1
row,Binder,binding result
1,B1,no binding (tested: 2 µg/mL)
2,B2,no binding (tested: 2 µg/mL)
3,B3,no binding (tested: 2 µg/mL)
4,B4,no binding (tested: 2 µg/mL)
5,B5,no binding (tested: 2 µg/mL)

# Biological target: T5, Nectin-1 (human, UniProt Q15223 31-517)
# T5 construct: whole, on cells; Plasma membrane, non-tethered secreted and tethered secreted forms in the library
# T5 sequence (looked up): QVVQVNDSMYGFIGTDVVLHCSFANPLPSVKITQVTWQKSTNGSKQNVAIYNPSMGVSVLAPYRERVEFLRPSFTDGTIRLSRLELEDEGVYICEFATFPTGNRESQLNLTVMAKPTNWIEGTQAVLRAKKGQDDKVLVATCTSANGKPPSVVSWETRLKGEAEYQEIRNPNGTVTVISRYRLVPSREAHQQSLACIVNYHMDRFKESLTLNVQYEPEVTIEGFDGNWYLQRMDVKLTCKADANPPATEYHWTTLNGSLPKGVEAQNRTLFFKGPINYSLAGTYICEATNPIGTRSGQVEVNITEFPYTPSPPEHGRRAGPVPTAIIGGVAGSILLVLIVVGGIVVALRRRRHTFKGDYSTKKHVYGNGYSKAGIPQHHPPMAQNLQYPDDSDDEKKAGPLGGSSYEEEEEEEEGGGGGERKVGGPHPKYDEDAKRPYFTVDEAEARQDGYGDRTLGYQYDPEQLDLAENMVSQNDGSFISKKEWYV
# Test: cell microarray on HEK293 cells, pooled compounds
# Experimental: as §1
row,Binder,binding result
1,B1,no binding (tested: 2 µg/mL)
2,B2,no binding (tested: 2 µg/mL)
3,B3,no binding (tested: 2 µg/mL)
4,B4,no binding (tested: 2 µg/mL)
5,B5,no binding (tested: 2 µg/mL)

# Biological target: T3, Human Nectin-4
# Test: Table 2B (DELFIA or SPR)
row,Binder,Kd [nM]
1,B1,1.02
2,B2,0.71
3,B3,0.97
